Source: patent US20140242093A1, “METHODS AND COMPOSITIONS FOR MODULATING THE INNATE IMMUNE RESPONSE AND/OR MYOGENESIS IN A MAMMALIAN SUBJECT” (FRED HUTCHINSON CANCER RESEARCH CENTER, priority 2011, published 2014)

Tested on: control human primary myoblasts
Test: Expression microarray of primary myoblasts transduced with lentivirus carrying DUX4-fl, DUX4-s or GFP
Method: Primary human myoblasts were collected and cultured as previously described (Snider et al., 2010). Primary myoblasts were maintained at or below 70% confluency for proliferation. For differentiation, cells were allowed to reach 95-100% confluency in growth medium. Once confluency was reached, the cells were changed to differentiation medium (F10 media supplemented with 1% horse serum, 10 μg/mL insulin, and 10 μg/mL transferrin, penicillin/streptomycin) and maintained for 4 days. Human RD cells were grown in DMEM in 10% bovine calf serum (Hyclone) and penicillin/streptomycin. The primary myoblasts were transduced with lentivirus carrying DUX-fl, DUX4- or GFP (MOI=15).
Expression microarrays were performed on the transduced cells at 24 hours after transduction as follows. […] Samples were analyzed by Illumina Human Whole Genome microarrays. Probe intensities were corrected, normalized, and summarized by the Lumi package of Bioconductor (Du et al., 2008). Differentially expressed genes were identified by the LIMMA package of Bioconductor (Wettenhall and Smyth, 2004). Gene set enrichment analysis (GSEA) was performed using the Bioconductor GOstats package (Falcon and Gentleman, 2007).

B1: DUX4-s: short splice form of DUX4 (SEQ ID NO:112), keeps the double-homeobox domains, lacks the C-terminal activation domain (protein, listed as Homo sapiens)
chain: MALPTPSDSTLPAEARGRGRRRRLVWTPSQSEALRACFERNPYPGIATRERLAQAIGIPEPRVQIWFQNERSRQLRQHRRESRPWPGRRGPPEGRRKRTAVTGSQTALLLRAFEKDRFPGIAAREELARETGLPESRIQIWFQNRRARHPGQGGRAPAQV
C1orf55 expression fc (Refseq NM_152608.3): −0.3632
MLKL expression fc (Refseq NM_152649.1, cultured human skeletal muscle): 1.457
ZSCAN4 expression fc (Refseq NM_152677.1): 0.04366
SAMD9L expression fc (Refseq NM_152703.2, cultured human skeletal muscle): 1.257
VWCE expression fc (Refseq NM_152718.2, cultured human skeletal muscle): −0.1213
fc of D2HGDH (expression array) (Refseq NM_152783.3): −0.3982
FAS fc (Refseq NM_152877.1): 0.1452
APCDD1 expression fc (Refseq NM_153000.3, cultured human skeletal muscle): −0.4301
PMP22 fc (Refseq NM_153321.1): 0.2667
SLC2A14 expression fc (Refseq NM_153449.2): 0.2472
CYBASC3 expression fc (Refseq NM_153611.3, cultured human skeletal muscle): −0.4218
GPBAR1 expression fc (Refseq NM_170699.2): −0.1298
NLRX1 fc (Refseq NM_170722.1): −0.1409
fc of HSCB (expression array) (Refseq NM_172002.3): 0.1735
fc of ZNF650 (expression array) (Refseq NM_172070.2): 0.6904
fc of IL4I1 (expression array) (Refseq NM_172374.1): 1.769
KLF17 expression fc (Refseq NM_173484.3): 0.08045
fc of RCOR2 (expression array) (Refseq NM_173587.2): −0.1949
fc of DCBLD1 (expression array) (Refseq NM_173674.1): 1.594
WARS expression fc (Refseq NM_173701.1, cultured human skeletal muscle): 1.715
fc of C3orf38 (expression array) (Refseq NM_173824.2): 1.033
fc of UBR1 (expression array) (Refseq NM_174916.1): 1.111
fc of C4orf34 (expression array) (Refseq NM_174921.1): 0.6119
FRMD3 fc (Refseq NM_174938.3): −0.2907
MT1E expression fc (Refseq NM_175617.3, cultured human skeletal muscle): 0.1289
TXLNA fc (Refseq NM_175852.3): −0.1621
MT1M expression fc (Refseq NM_176870.2, cultured human skeletal muscle): 1.185
PPAP2A fc (Refseq NM_176895.1): 0.545
CSE1L expression fc (Refseq NM_177436.1): 0.07287
PPM1B expression fc (Refseq NM_177968.2): −0.0342
fc of STARD13 (expression array) (Refseq NM_178006.1): −0.8963
RILPL1 fc (Refseq NM_178314.2): 0.6233
HIF1A fc (Refseq NM_181054.1): 0.4209
ID1 fc (Refseq NM_181353.1): 0.7329
C1QTNF3 expression fc (Refseq NM_181435.4): −0.02264
PPP2R2B expression fc (Refseq NM_181677.1): −0.1091
PPP2R2C fc (Refseq NM_181876.2): −0.2308
BCL9L fc (Refseq NM_182557.2): 0.7326
fc of IRF2BP2 (expression array) (Refseq NM_182972.2): −0.806
fc of TRIM69 (expression array) (Refseq NM_182985.3): 0.2639
fc of TRIM55 (expression array) (Refseq NM_184086.1): 0.1967
RBM39 expression fc (Refseq NM_184234.1): 0.263
INO80C expression fc (Refseq NM_194281.3): −0.1128
SPTY2D1 expression fc (Refseq NM_194285.2): −0.2916
fc of RNASE4 (expression array) (Refseq NM_194431.1): −0.1107
BID fc (Refseq NM_197966.1): −0.1675
fc of MZF1 (expression array) (Refseq NM_198055.1): 0.05558
fc of ARSK (expression array) (Refseq NM_198150.1): 1.03
fc of SRC (expression array) (Refseq NM_198291.1): 0.0569
fc of APOOL (expression array) (Refseq NM_198450.3): 1.369
DENND2C expression fc (Refseq NM_198459.2): −0.2684
TPRX1 expression fc (Refseq NM_198479.2): −0.05019
AGRN expression fc (Refseq NM_198576.2, cultured human skeletal muscle): 0.3808
C1QTNF1 expression fc (Refseq NM_198594.1, cultured human skeletal muscle): 0.7696
fc of SERPINB8 (expression array) (Refseq NM_198833.1): 1.016
SEMA4B expression fc (Refseq NM_198925.1, cultured human skeletal muscle): 0.1542
C9orf169 expression fc (Refseq NM_199001.1, cultured human skeletal muscle): −0.05213
T1560 expression fc (Refseq NM_199048.1): 0.02012
XAF1 expression fc (Refseq NM_199139.1, cultured human skeletal muscle): 0.6222
SAA1 expression fc (Refseq NM_199161.1, cultured human skeletal muscle): 0.2569
C20orf117 fc (Refseq NM_199181.2): −0.5322
fc of TMEM189-UBE2V1 (expression array) (Refseq NM_199203.1): 0.06378
DGKA expression fc (Refseq NM_201554.1, cultured human skeletal muscle): 0.1014
fc of ZMYM3 (expression array) (Refseq NM_201599.1): −0.01297
FBXO33 expression fc (Refseq NM_203301.1): 0.2162
SYNJ1 expression fc (Refseq NM_203446.1): −0.07515
fc of CMPK2 (expression array) (Refseq NM_207315.2): 1.351
CYP4V2 fc (Refseq NM_207352.2): −0.4989
fc of C15orf52 (expression array) (Refseq NM_207380.1): −0.2956
FLJ45337 expression fc (Refseq NM_207465.1): −0.2461
ATP2B1 fc (Refseq NM_001001323.1): −0.7039
FLJ45139 expression fc (Refseq NM_001001692.1): 0.1009
OR2T34 expression fc (Refseq NM_001001821.1): −0.05408
fc of GPM6B (expression array) (Refseq NM_001001995.1): −1.119
NT5C1B expression fc (Refseq NM_001002006.1): −0.03655
fc of NT5C3 (expression array) (Refseq NM_001002010.1): 1.882
RAB11FIP1 expression fc (Refseq NM_001002814.1): −0.4765
fc of LEPR (expression array) (Refseq NM_001003679.1): −0.5494
ZNF705A expression fc (Refseq NM_001004328.1): −0.06059
HIST2H3A expression fc (Refseq NM_001005464.2): −0.05203
GBA fc (Refseq NM_001005742.1): 0.289
SIAH1 expression fc (Refseq NM_001006610.1): −0.0793
OPTN fc (Refseq NM_001008213.1): −0.5727
SLC7A2 expression fc (Refseq NM_001008539.2, cultured human skeletal muscle): −0.1055
CXCR4 expression fc (Refseq NM_001008540.1): −0.0521
fc of CLSTN1 (expression array) (Refseq NM_001009566.1): −0.2768
PRAMEF4 expression fc (Refseq NM_001009611.1): 0.0423
C6orf191 expression fc (Refseq NM_001010876.1): −0.05752
PRAMEF6 expression fc (Refseq NM_001010889.2): −0.06189
PRAMEF9 expression fc (Refseq NM_001010890.1): −0.07265
PRAMEF8 expression fc (Refseq NM_001012276.1): 0.1662
PRAMEF7 expression fc (Refseq NM_001012277.1): 0.106
fc of MYPOP (expression array) (Refseq NM_001012643.2): −0.03552
PRAMEF5 expression fc (Refseq NM_001013407.1): 0.1054
HNRNPCL1 expression fc (Refseq NM_001013631.1): −0.1035
RFPL4B expression fc (Refseq NM_001013734.2): −0.1031
ODF3B fc (Refseq NM_001014440.2): 0.4296
DNAJC25 expression fc (Refseq NM_001015882.2): −0.5072
KCNK2 fc (Refseq NM_001017425.2): 0.2137
CCDC58 expression fc (Refseq NM_001017928.2): 0.07678
fc of ATP6AP1L (expression array) (Refseq NM_001017971.1): 0.02803
SH3PXD2B fc (Refseq NM_001017995.1): −0.01555
ZBTB16 expression fc (Refseq NM_001018011.1, cultured human skeletal muscle): 0.4921
fc of SERBP1 (expression array) (Refseq NM_001018069.1): −1.179
SOD2 expression fc (Refseq NM_001024466.1, cultured human skeletal muscle): 1.532
fc of RUNX2 (expression array) (Refseq NM_001024630.2): 0.05524
CLK1 expression fc (Refseq NM_001024646.1): 0.0752
fc of TGFBR2 (expression array) (Refseq NM_001024847.1): 0.1743
TSPAN4 fc (Refseq NM_001025235.1): −0.1169
fc of RFX5 (expression array) (Refseq NM_001025603.1): −0.06023
PSRC1 fc (Refseq NM_001032290.1): −0.4871
OAS1 expression fc (Refseq NM_001032409.1, cultured human skeletal muscle): 1.453
ENTPD8 expression fc (Refseq NM_001033113.1): 0.03523
RHOT1 fc (Refseq NM_001033566.1): 0.3308
CYFIP2 fc (Refseq NM_001037333.1): −0.633
fc of PHYH (expression array) (Refseq NM_001037537.1): −0.5757
fc of EFEMP1 (expression array) (Refseq NM_001039348.1): −0.2077
PRAMEF10 expression fc (Refseq NM_001039361.1): 0.008756
ETNK1 expression fc (Refseq NM_001039481.1): 0.06444
LOC440053 expression fc (Refseq NM_001039615.1): −0.09982
CBLN3 fc (Refseq NM_001039771.2): 0.1543
HEY1 expression fc (Refseq NM_001040708.1): −0.04271
fc of UHRF1 (expression array) (Refseq NM_001048201.1): −1.034
DBNDD2 expression fc (Refseq NM_001048223.1): 0.2257
NCOR2 fc (Refseq NM_001077261.1): −0.2241
fc of NFKB2 (expression array) (Refseq NM_001077493.1): 0.2202
fc of SLC29A1 (expression array) (Refseq NM_001078174.1): −1.034
DYNC2H1 expression fc (Refseq NM_001080463.1): 0.04558
PRAMEF12 expression fc (Refseq NM_001080830.1): 0.1269
FRG2B expression fc (Refseq NM_001080998.1): 0.1315
DEFB103A expression fc (Refseq NM_001081551.2): 0.06581
CPSF4 fc (Refseq NM_001081559.1): −0.2674
fc of GPD2 (expression array) (Refseq NM_001083112.1): 1.197
fc of GPR1 (expression array) (Refseq NM_001098199.1): 0.2201
HLA-F expression fc (Refseq NM_001098479.1, cultured human skeletal muscle): 0.9368
RFPL3 expression fc (Refseq NM_001098535.1): −0.06033
PRR4 expression fc (Refseq NM_001098538.1): 0.1606
FAM156B fc (Refseq NM_001099684.1): −0.1712
